# In patent US20230364228A1:
# B1: antibody having a heavy chain variable domain (VH) of SEQ ID NO:1 and a light chain variable domain (VL) of SEQ ID NO:2 (CAEL101) (antibody, IgG1, V domains shown)
# VH: QVQLKESGPGLVAPSQSLSITCTVSGFSLSSYGVSWVRQPPGKGLEWLGVIWGDGSTNYHPNLMSRLSISKDISKSQVLFKLNSLQTDDTATYYCVTLDYWGQGTSVTVSS
# VL: DVVMTQTPLSLPVSLGDQASISCRSSQSLVHRNGNTYLHWYLQKPGQSPKLLIYKVSNRFSGVPDRFSGSGSGTDFTLKISRVEAEDLGLYFCFQTTYVPNTFGGGTKLEIK
# Columns and labels:
# [1] = target: highest binding amyloid (in vitro); assay: in vitro binding to amyloid, format not stated
# [2] = target: highest binding amyloid (in vitro); assay: calculated from in vitro binding to amyloid, format not stated
binder,measurement,setting,value
B1,EC50,[1],157 µg/mL
same,Michaelis-Menton (MM) EC 90 (calculated),[2],36.5 µg/mL
